Assay: soluble on expression in E. coli; label from the status in PepcDB or PDB records

Sequence | soluble on expression in E. coli
MNNEPLRPDPDRLLEQTAAPHRGKLKVFFGACAGVGKTWAMLAEAQRLRAQGLDIVVGVVETHGRKDTAAMLEGLAVLPLKRQAYRGRHISEFDLDAALARRPALILMDELAHSNAPGSRHPKRWQDIEELLEAGIDVFTTVNVQHLESLNDVVSGVTGIQVRETVPDPFFDAADDVVLVDLPPDDLRQRLKEGKVYIAGQAERAIEHFFRKGNLIALRELALRRTADRVDEQMRAWRGHPGEEKVWHTRDAILLCIGHNTGSEKLVRAAARLASRLGSVWHAVYVETPALHRLPEKKRRAILSALRLAQELGAETATLSDPAEEKAVVRYAREHNLGKIILGRPASRRWWRRETFADRLARIAPDLDQVLVALDEPPAR | soluble
MAHHHHHHMQVWGLVGRLTLPPSSSGKARKGSRRIPAADARLSKGSVNNRGRFVHNNRRMDNTLSVVVEKPAGLRRQWIAWPRGKSRDDPYEAIVPLLHISHYLPPVMAEAASCLDVKASFFPSLFTAGDSASLSMPRGGRHAGGADTTFNGIQGQPRNSPDYYYLGNRGGDDGGSPLWAAPPMVRIEVWIDNIRITGSKSDVTLWEAQVLRNADSCHAYLGGTANRALRNTLFWGYDLIKLTVRYP | not soluble
GPLGSMDSPPEGYRRNVGICLMNNDKKIFAASRLDIPDAWQMPQGGIDEGEDPRNAAIRELREETGVTSAEVIAEVPYWLTYDFPPKVREKLNIQWGSDWKGQAQKWFLFKFTGQDQEINLLGDGSEKPEFGEWSWVTPEQLIDLTVEFKKPVYKEVLSVFAPHL | soluble
MKIMIIGATGMAGQALVTTALNRGHQVVAVARSAEKLATLPSNPNLTSIVRDAFNLTTTDLSAVDAVVDAFATAPDHAYLHVDLATHLISQLRETTTPRVAFILGAGSLTTGDDAHLFVHDLEQDPHAASFISVPQNQLKELTFLRDVDNVNWFGVSPAADFHPGEAQPALLGTDTLLFNDQQQSGTSAGTMAVAILDELENPLEHHHHHH | not soluble
MGSDKIHHHHHHMEVTRTDKAVTLRWENEEVSEGTLVFVSSSPSLEANSEPVFKVSNAAKHYTFETKDIPVYFFLQAPNGDKRVVSERILPLESVFNFRDMGGYKTKHGHHVKWGKLYRSSNLVNINQADAALLQKLHIKWICDLRSSSEVQAQPTPEIQGVLNKHIPIGTAKNEKTTLPVSNDKAIYEPLMGESYRVFVQSVDGFKEIFSEILTDAKAGLPFVFHCTAGKDRTGVLAALLLTLLDVPEKTIFDDYAITNRYQDNILQEMGGIVSLFSNGNEKIDLEAFRPMAEARPEYLKIAFDEMKKQFGSVDGYLEKGIGITAEEKAIIQQQLLE | not soluble
MQKIVIVANGAPYGSESLFNSLRLAIALREQESNLDLRLFLMSDAVTAGLRGQKPGEGYNIQQMLEILTAQNVPVKLCKTCTDGRGISTLPLIDGVEIGTLVELAQWTLSADKVLTF | soluble
MSTGKIIQVIGAVIDVEFARDNTPKVYDALNVVEAGLVLEVQQQIGDGVVRTIAMGSSDGLRRGMEVKNTNAPISVPVGHGTLGRIMNVLGEPIDEAGPIEYTEKRSIHQAPPAYDELALSTEILETGIKVVDLICPFAKGGKVGLFGGAGVGKTVTMMELINNIAKEHSGYSVFAGVGERTREGNDFYYEMKDSNVLDKVSLVYGQMNEPPGNRLRVALSGLTIAEGFRDEKRDVLMFIDNIYRYTLAGTEVSALLGRMPSAVGYQPTLAAEMGALQERITSTKTGSITSVQAVYVPADDLTDPSPATTFSHLDATIVLSRQIAELGIYPAVDPLDSTSRQLDPLVVGQDHYETARAVQKVLQRYKELKDIIAILGMDELSDEDKKIVDRARKIQRFLSQPFHVAEVFTGNPGKFVSLKDTVASFKAIVNGEYDHLPEQAFYMVGSIQEAIEKAKTL | not soluble
QIQLVQSGPELKKPGETVKISCKASGYTFTDYSMYWVKQAPGKGLKRMGWINTETGEPTYADDFKGRFALSLDTSASTAYLHISNLKNEDTATYFCARGLDSWGQGTSVTVSSAKTTPPSVYPLAPGCGDTTGSSVTLGCLVKGYFPESVTVTWNSGSLSSSVHTFPALLQSGLYTMSSSVTVPSSTWPSQTVTCSVAHPASSTTVDKKLEPS | soluble
SRRLGKSLGINSIPCKFCSYDCVYCQVGRTINKTIERREFYSPEDIFKSVEERIGKLNNEKIDYLTFVADGEPTLDINLSKEVEMLRDFDIPIAIITNSSLIWREDVRNDILNFDLVSFKVDSVDEKIWREINRPHKDLVLDKILEGMIAFRDNYKGELITETMILGSIKYTEESIIKTAEFLKELNPNKCYLNTPIRPPSEKYIKPPKIEVITKILAIFNEIIGKNKIKLLGKFE | not soluble
MGSDKIHHHHHHMGQKVHPRGFRLGLSADWQAKWFNEKNYKEWLLEDEEIRKIIKNKYYHAGISEIYVERPDAERINITVKTARPGIIIGRKGSEITSLREELERKFNRRVVINIEEIKTPELDAQLVAESIASRIEKRASYKVAMKRAIMNAMRKGAQGIKVMVAGRLGGAEIARREWYLRGRLPLQKIKAIIDYGTATAWTKYGTIGIKVWIYKGDADI | not soluble
MSGVLNTVDQRTNLVGENRLELLLFTLNSRQLFAINVFKVKEVIKLPPLTKLPGSHYNIRGVASLRGEAVPVIDLRCSIGFPPLRGEAEEENLIVTEYNRSVQGFLVGPVRNIINTAWTEIQPPPSTSGRSNYLTAITQVKDGDTSQIVEIIDVEKVLAEIVHYDVTISEDILDHDLSQSMVGRN | not soluble
MELYLIRHGIAEAQKTGIKDEERELTQEGKQKTEKVAYRLVKLGRQFDLIVTSPLIRARQTAEILLASGLSCQLEESNHLAPNGNIFNWLDYWLKPKNFPENAQIAIVGHEPCLSNWTEILLWGEAKDSLVLKKAGMIGLKLPEIGSPVGRSQMFWLTPPRYLLLEHHHHHH | soluble
MLIPSKLSRPVRLEHTVVRERLLAKLSGANNYRLVLITSPAGYGKTTLISQWAAGKNDLGWFSLDEGDNQQERFASYLIAAIQQATGNHCAASEAMVQKRQYASLSSLFAQLFIELADWQRPLYLVIDDYHLINNPVIHDAMRFFLRHQPENMTLVVLSRNLPQLGIANLRVRDQLLEIGSQQLAFTHQEAKQFFDCRLTSPIEADDSSRLCDDVAGWATALQLIALSARQNNSSAQHSARRFAGINASHLSDYLVDEVLDNVDARTRNFLLKSSLLRSMNDALIVRVTGEENGQMQLEEIERQGLFLQRMDDSGEWFRYHPLFGSFLRQRCQWELAVELPEIHRAAAESWMAQGFPSEAIHHALAAGDAKMLRDILLNHAWGMFNHSELGLLEQSLAALPWSNLLENPRLILLQAWLMQSQHRYSEVNTLLARAEQEMSVEMDTAMHGDFNALRAQVAINDGDQDEAERLSMVALEELPLANYYSRIVATSVHGEVLHCKGKLTKSLAVMQQTEQMARRHDVWHYALWSIIQQSEILFAQGFLQAAW | not soluble
MSRRLRRTKIVTTLGPATDRDNNLEKVIAAGANVVRMNFSHGSPEDHKMRADKVREIAAKLGRHVAILGDLQGPKIRVSTFKEGKVFLNIGDKFLLDANLGKGEGDKEKVGIDYKGLPADVVPGDILLLDDGRVQLKVLEVQGMKVFTEVTVGGPLSNNKGINKLGGGLSAEALTEKDKADIKTAALIGVDYLAVSFPRCGEDLNYARRLARDAGCDAKIVAKVERAEAVCSQDAMDDIILASDVVMVARGDLGVEIGDPELVGIQKALIRRARQLNRAVITATQMMESMITNPMPTRAEVMDVANAVLDGTDAVMLSAETAAGQYPSETVAAMARVCLGAEKIPSINVSKHRLDVQFDNVEEAIAMSAMYAANHLKGVTAIITMTESGRTALMTSRISSGLPIFAMSRHERTLNLTALYRGVTPVHFDSANDGVAAASEAVNLLRDKGYLMSGDLVIVTQGDVMSTVGSTNTTRILTVE | soluble
MKLASYLQENIVVEKNGRFTIPIKKQYRSKVSGTVIDTSSSGATVFMEPKEVGALYEQLDDLLAAESYEVETILYTLTASVLAIEKELHLAMDIMHHYDVLFAKAKYGRSIDGVIPLEHHHHHH | not soluble
QLVLVKRSTPPVAVIWSAPDCPYCRKLEKTLEQENASVYVVPVGVAENGFRQAARVYCADDPSQAWRKVMQGSEINGRAKTSCQYPRDMLNDIGFFLGMGRMATPIVVFADGSTVIGWNDQNAWMLLRKKISEQIFFND | not soluble
MGSDKIHHHHHHMALKHYKNSDSTVFNDAKALFDLNKNILLKGPTGSGKTKLAETLSEVVDTPMHQVNCSVDLDTESLLGFKTIKTNAEGQQEIVFVDGPVIKAMKEGHILYIDEINMAKPETLPVLNGVLDYRRQITNPYTGEVIKAVPGFNVIAAINEGYVGTLPMNEALKNRFVVIHVDYIDGDILKNVIKEQSLLQDDKQIEQIIKFNEDLRTMSKQGQISEEAASIRALLDLCDLITVMPVERAIKRTIIDKLEDEREQQAIYNAVELNF | not soluble
MGHHHHHHSHMASRVRVTILFATETGKSEALAWDLGALFSCAFNPKVVCMDKYRLSCLEEERLLLVVTSTFGNGDCPGNGEKLKKSLFMLKELNNKFRYAVFGLGSSMYPRFCAFAHDIDQKLSHLGASQLTPMGEGDELSGQEDAFRSWAVQTFKAACETF | not soluble
MTLDYIYHSGFAIEAEGVTVIIDYYKDSSETEHNRGIVHDYLLQRPGKLYVLATHFHPDHFNREILTWKEARPDIRYIFSKDILKSHRAKPEDATYIKKGETYEDETIRIEAFGSTDVGSSFLIHLQDWNIFHAGDLNNWHWSEESTEAEIRKANGDFLAEVKYLKEKAPKIDLALFPVDRRMGKDYMKGAKQFIEQIKTTIFVPMHFSEDYEGGNALRDFAENAGCRFVSITHRGESFEITK | not soluble
MGSDKIHHHHHHMHFYTARQPILNRRQRVVAYELLFRDSYKNCFPVDVPDKVATAKLLVNSFLSMDIEDMTDGKPALINFPTSLLKEHLVHILPYKNLVIEVLETVEPNDDNFAILKQLFDSGYHLALDDFIYSPAWDRFLPLFKLIKIDIVATPLDTIAHILPKLKQKKTRLLAEKVETQADFLHAKALGFDYFQGYFFYKPEIVKGNEVELSQPFLMSIYTEVMKPSFSYRKLEAYFTQDMDLSYKLLRFVNSSYFSHVKDIISLKQAMIFLGENQLRKFVCLIVMAQLNPDKPQILIQNTMLRARLCEVIAKVMKLNKLADAAFLTGLFSTLDAILDKPMEKVLHSLPLAPEINNALLHQQGELAECLALAIAYMQGNWEFVSEFVSRNHINAGELTRRCNQVYLWLSEYQRSSSSKA | not soluble
MVKSLQLAHQLKDKKILLIGGGEVGLTRLYKLIPTGCKLTLVSPDLHKSIIPKFGKFIQNEDQPDYREDAKRFINPNWDPTKNEIYEYIRSDFKDEYLDLEDENDAWYIIMTCIPDHPESARIYHLCKERFGKQQLVNVADKPDLCDFYFGANLEIGDRLQILISTNGLSPRFGALVRDEIRNLFTQMGDLALEDAVVKLGELRRGIRLLAPDDKDVKYRMDWARRCTDLFGIQHCHNIDVKRLLDLFKVMFQEQNCSLQFPPRERLLSEYCSS | not soluble
MGSDKIHHHHHHMRRRVPLNSVRAFEAAARRMSLVQASDELCVTPTAVSHQIRQLEDFLQTKLFLRRSSRLELTPESRACLAKLTEALDIIDDAIAALHKPMDMPERLVVGASASVGSLWLMPRLRNFYRTAPEIDISLTTFIERSAIETDTSDVWICNWHTNLDRRVELLLEEDIIPVCSPQMAEEFGELSFDSLRELPLVHVDRAKASINGQYPDWDRYLREYGISRNDIAKGPRFNQAGPAIEAAKAGMGALLGRSILIERALETGELIRLGDPYPIRNPYYLISPLQPASNAVKMFKDWIFAQAKTRTSTYVELPHKNRRGSDFRLTV | not soluble
